# Test results taken from patent US20150093764A1 (BECTON DICKINSON, published 2015).
# B1: parental rabbit anti-human CD88 mAb (hybridoma cell line CD88 clone C85-4124) (antibody, V domains shown)
# VH: QSVKESEGGLFKPADTLTLTCTVSGFSVNNKGVMWVRQAPGNGLEWIGSIGISGRVTYATWAKSRSTITRDTNLNTVTLKVTSLTVADTATYFCRIGSNIWGPGTLVTVSS
# VL: ELVLTQTPSSVSAAVGGTVTINCQSSQSVYNNNLLAWYQQKPGQPPKLLIYQASTLDSGVPSRFKGSGTGTHFTLTISDLECDDAATYYCQGGYNGNGIAAFGGGTEVVVDG
# notes: Rabbit monoclonal antibody
# B2: Variant 2 rabbit anti-human CD88 mAb, Y51A in light chain CDR-L1 (antibody, V domains shown)
# VH: QSVKESEGGLFKPADTLTLTCTVSGFSVNNKGVMWVRQAPGNGLEWIGSIGISGRVTYATWAKSRSTITRDTNLNTVTLKVTSLTVADTATYFCRIGSNIWGPGTLVTVSS
# VL: ELVLTQTPSSVSAAVGGTVTINCQSSQSVANNNLLAWYQQKPGQPPKLLIYQASTLDSGVPSRFKGSGTGTHFTLTISDLECDDAATYYCQGGYNGNGIAAFGGGTEVVVDG
# notes: Recombinant, made in 293F cells; also called second variant
# B3: Variant 4 rabbit anti-human CD88 mAb, R116A in heavy chain and Y51F in light chain (antibody, V domains shown)
# VH: QSVKESEGGLFKPADTLTLTCTVSGFSVNNKGVMWVRQAPGNGLEWIGSIGISGRVTYATWAKSRSTITRDTNLNTVTLKVTSLTVADTATYFCAIGSNIWGPGTLVTVSS
# VL: ELVLTQTPSSVSAAVGGTVTINCQSSQSVFNNNLLAWYQQKPGQPPKLLIYQASTLDSGVPSRFKGSGTGTHFTLTISDLECDDAATYYCQGGYNGNGIAAFGGGTEVVVDG
# notes: Recombinant double mutant, made in 293F cells; also called fourth variant
# B4: Variant 1 rabbit anti-human CD88 mAb, R116A in heavy chain CDR-H3 (antibody, V domains shown)
# VH: QSVKESEGGLFKPADTLTLTCTVSGFSVNNKGVMWVRQAPGNGLEWIGSIGISGRVTYATWAKSRSTITRDTNLNTVTLKVTSLTVADTATYFCAIGSNIWGPGTLVTVSS
# VL: ELVLTQTPSSVSAAVGGTVTINCQSSQSVYNNNLLAWYQQKPGQPPKLLIYQASTLDSGVPSRFKGSGTGTHFTLTISDLECDDAATYYCQGGYNGNGIAAFGGGTEVVVDG
# notes: No signal peptide limits are stated; also called first variant
# B5: Variant 3 rabbit anti-human CD88 mAb, R116A in heavy chain and Y51A in light chain (antibody, V domains shown)
# VH: QSVKESEGGLFKPADTLTLTCTVSGFSVNNKGVMWVRQAPGNGLEWIGSIGISGRVTYATWAKSRSTITRDTNLNTVTLKVTSLTVADTATYFCAIGSNIWGPGTLVTVSS
# VL: ELVLTQTPSSVSAAVGGTVTINCQSSQSVANNNLLAWYQQKPGQPPKLLIYQASTLDSGVPSRFKGSGTGTHFTLTISDLECDDAATYYCQGGYNGNGIAAFGGGTEVVVDG
# notes: Recombinant double mutant, made in 293F cells; also called third variant
# How the values were obtained:
# [1] = biological target: T1, human CD88 (complement component 5a receptor 1) (human, UniProt P21730 1-350); assay: flow cytometry on granulocytes, PE goat anti-rabbit secondary
# T1 construct: Native antigen on granulocytes of lysed human whole blood / PBMC preparations, read by flow cytometry; also called C5AR1; native CD88 antigen expressed on granulocytes
# T1 chain: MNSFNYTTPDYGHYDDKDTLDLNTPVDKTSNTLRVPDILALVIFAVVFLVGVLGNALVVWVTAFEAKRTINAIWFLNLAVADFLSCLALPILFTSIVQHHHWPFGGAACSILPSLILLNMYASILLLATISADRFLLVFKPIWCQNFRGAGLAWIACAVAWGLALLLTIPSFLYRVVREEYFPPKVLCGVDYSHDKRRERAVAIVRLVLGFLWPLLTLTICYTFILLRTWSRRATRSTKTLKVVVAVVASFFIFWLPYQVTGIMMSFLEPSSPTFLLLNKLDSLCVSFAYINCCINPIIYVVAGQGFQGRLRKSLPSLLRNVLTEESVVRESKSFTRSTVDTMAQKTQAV
# Protocol: (§1) For cell surface staining with the parental rabbit anti-human CD88 mAb, PBMCs in PBS containing 2% BSA were mixed with parental rabbit anti-human CD88 mAbs at concentrations of 1 μg, 0.5 μg, 0.25 μg, 0.125 μg and 0.0625 μg as shown in FIG. 3 (A-E) and incubated for 1 hr at 4° C. The cells were washed with PBS containing 2% BSA and incubated at 4° C. for 30 minutes with BD Pharmingen PE Goat Anti-rabbit IgG (Cat No 558146). The cells were washed with PBS containing 2% BSA, and analyzed with a BD FACS Canto II Flow cytometer. Non-specific binding of the secondary anti-rabbit PE-conjugated antibody on the cells alone (primary antibody absent; FIG. 3F) and background autofluorescence by unstained cells (secondary antibody absent; FIG. 3G) served as negative controls for the assay. The % positive signal was detected.
# [2] = biological target: T1, human CD88 (complement component 5a …); assay: flow cytometry on granulocytes, PE goat anti-rabbit IgG secondary
# Protocol: as §1
# The binding of the variant rabbit anti-human CD88 mAbs was assayed as for the parental mAb, and the results for four variants are shown in FIGS. 4-7. […] Panels F and G show fluorescence of the negative controls as described for the parental mAb. […] Panels F and G show fluorescence of the negative controls as described for the parental mAb. […] Panels F and G show fluorescence of the negative controls as described for the parental mAb. FIG. 7 (A-E) show the binding at concentrations of 1 ug, 0.5 ug, 0.25 ug, 0.125 ug and 0.0625 ug of a fourth variant mAb having a substitution R116A in the heavy chain and a substitution Y51F in the light chain CDRs. Panels F and G show fluorescence of the negative controls as described for the parental mAb.
Binder,binding result [1],binding result [2]
B1,binds,–
B2,–,no binding
B3,–,no binding
B4,–,no binding
B5,–,no binding
